# Legend:
# Test in all cases: purified protein
# Settings in all cases: oxidation, 1 mM NAD+, 50 mM ammonium bicarbonate pH 7.9, 25 °C
# purified protein [1] = substrate: O=C(O)[C@@H](O)[C@@H](O)[C@H](O)[C@H](O)CO
# purified protein [2] = substrate: O=C(O)[C@@H](O)[C@H](O)[C@H](O)[C@H](O)CO
# purified protein [3] = substrate: O=C(O)[C@H](O)[C@@H](O)[C@H](O)[C@H](O)CO
# purified protein [4] = substrate: O=C(O)[C@H](O)[C@H](O)[C@H](O)[C@H](O)CO
# purified protein [5] = substrate: O=C(O)C(=O)C[C@H](O)[C@H](O)CO; type: biochemical, Sphingomonas sp. A1
# purified protein [6] = substrate: O=C(O)[C@@H](O)[C@@H](O)[C@@H](O)[C@H](O)CO; type: biochemical, Sphingomonas sp. A1
# purified protein [7] = substrate: O=C(O)[C@@H](O)[C@@H](O)[C@H](O)CO; type: biochemical, Sphingomonas sp. A1
# purified protein [8] = substrate: O=C(O)[C@@H](O)[C@H](O)[C@H](O)CO; type: biochemical, Sphingomonas sp. A1
# purified protein [9] = substrate: O=C(O)[C@H](O)[C@@H](O)[C@@H](O)[C@H](O)CO; type: biochemical, Sphingomonas sp. A1
# purified protein [10] = substrate: O=C(O)[C@H](O)[C@@H](O)[C@H](O)CO; type: biochemical, Sphingomonas sp. A1
# purified protein [11] = substrate: O=C(O)[C@H](O)[C@H](O)[C@H](O)CO; type: biochemical, Sphingomonas sp. A1
# purified protein [12] = substrate: OCC(O)CO; type: biochemical, Sphingomonas sp. A1
protein,measurement,setting,value
"SpsADH (Sphingomonas sp. A1) (protein, full length (258 residues), codon-optimised synthetic gene, N-terminal His6-tag kept (pET-28a), E. coli BL21(DE3), 29 500 Da; NAD+-dependent isoenzyme (printed locus SPH3227 may belong to the NADP+-dependent isoenzyme)) MFSDLKGKRILITGSTEGIGMATAIELARYGAVVGLNSHVDPADPALLLGKLREAGGDGAFFRADITKTAECQRLVSAFVERFDGIDVLINNAGGLAGRSNLENIDDAFYDRVMDLNGRSVLMMTKFAIPHLRASAKASGTTSAVISTGSIAAREGGGIGAGVYAASKAWLHDIHRNWVKEFTKDSIRFNIVAPGTVDTAFHADKSDELKTRIANSIPMGRFGTVQELAPAYVFFASHAASGYITGQILDVNGGQICP",Km,purified protein [1],14 ± 1 mM
same,Vmax,purified protein [1],1.1 µmol/min/mg
same,kcat,purified protein [1],0.53 s⁻¹
same,kcat/Km,purified protein [1],38 M⁻¹ s⁻¹
same,Km,purified protein [2],24 ± 4 mM
same,Vmax,purified protein [2],0.39 µmol/min/mg
same,kcat,purified protein [2],0.19 s⁻¹
same,kcat/Km,purified protein [2],8 M⁻¹ s⁻¹
same,Km,purified protein [3],12 ± 1 mM
same,Vmax,purified protein [3],2 µmol/min/mg
same,kcat,purified protein [3],0.98 s⁻¹
same,kcat/Km,purified protein [3],82 M⁻¹ s⁻¹
same,Km,purified protein [4],16 ± 2 mM
same,Vmax,purified protein [4],0.36 µmol/min/mg
same,kcat,purified protein [4],0.18 s⁻¹
same,kcat/Km,purified protein [4],11 M⁻¹ s⁻¹
same,Km,purified protein [5],13 ± 3 mM
same,Vmax,purified protein [5],2.8 µmol/min/mg
same,kcat,purified protein [5],1.4 ± 0.08 s⁻¹
same,kcat/Km,purified protein [5],100 ± 30 M⁻¹ s⁻¹
same,Km,purified protein [6],6 ± 1 mM
same,Vmax,purified protein [6],0.042 µmol/min/mg
same,kcat,purified protein [6],0.021 ± 0.001 s⁻¹
same,kcat/Km,purified protein [6],3.4 ± 0.9 M⁻¹ s⁻¹
same,Km,purified protein [7],27 ± 2 mM
same,Vmax,purified protein [7],0.0086 µmol/min/mg
same,kcat,purified protein [7],0.0042 ± 0.0001 s⁻¹
same,kcat/Km,purified protein [7],0.16 ± 0.02 M⁻¹ s⁻¹
same,Km,purified protein [8],27 ± 3 mM
same,Vmax,purified protein [8],0.01 µmol/min/mg
same,kcat,purified protein [8],0.0048 ± 0.0001 s⁻¹
same,kcat/Km,purified protein [8],0.18 ± 0.02 M⁻¹ s⁻¹
same,Km,purified protein [9],50 ± 5 mM
same,Vmax,purified protein [9],0.016 µmol/min/mg
same,kcat,purified protein [9],0.0079 ± 0.0003 s⁻¹
same,kcat/Km,purified protein [9],0.16 ± 0.02 M⁻¹ s⁻¹
same,Km,purified protein [10],24 ± 2 mM
same,Vmax,purified protein [10],0.066 µmol/min/mg
same,kcat,purified protein [10],0.032 ± 0.002 s⁻¹
same,kcat/Km,purified protein [10],1.4 ± 0.2 M⁻¹ s⁻¹
same,Km,purified protein [11],16 ± 1 mM
same,Vmax,purified protein [11],0.01 µmol/min/mg
same,kcat,purified protein [11],0.0052 ± 0.0001 s⁻¹
same,kcat/Km,purified protein [11],0.33 ± 0.03 M⁻¹ s⁻¹
same,Km,purified protein [12],100 ± 10 mM
same,Vmax,purified protein [12],0.011 µmol/min/mg

# Source: article PMC6011931, “Substrate scope of a dehydrogenase from Sphingomonas species A1 and its potential application in the synthesis of rare sugars and sugar derivatives” (Microbial Biotechnology, 2018)
